The target of test [1] is full-length B-Catenin (Uniprot ID P35222) (human). The test is described as follows: competition fluorescence polarization. A general note: Polarisation of emitted light reports the rotation of a fluorescent probe.
Test [2] addresses full-length beta-catenin (Uniprot ID P35222) (human). The test is described as follows: competition fluorescence polarization.
The target in test [3] is beta-catenin in DLD1 TCF reporter cells (UniProt P35222). Description: cell-based or functional assay.
Chain of beta-catenin in DLD1 TCF reporter cells (P35222 2-781 limits assumed): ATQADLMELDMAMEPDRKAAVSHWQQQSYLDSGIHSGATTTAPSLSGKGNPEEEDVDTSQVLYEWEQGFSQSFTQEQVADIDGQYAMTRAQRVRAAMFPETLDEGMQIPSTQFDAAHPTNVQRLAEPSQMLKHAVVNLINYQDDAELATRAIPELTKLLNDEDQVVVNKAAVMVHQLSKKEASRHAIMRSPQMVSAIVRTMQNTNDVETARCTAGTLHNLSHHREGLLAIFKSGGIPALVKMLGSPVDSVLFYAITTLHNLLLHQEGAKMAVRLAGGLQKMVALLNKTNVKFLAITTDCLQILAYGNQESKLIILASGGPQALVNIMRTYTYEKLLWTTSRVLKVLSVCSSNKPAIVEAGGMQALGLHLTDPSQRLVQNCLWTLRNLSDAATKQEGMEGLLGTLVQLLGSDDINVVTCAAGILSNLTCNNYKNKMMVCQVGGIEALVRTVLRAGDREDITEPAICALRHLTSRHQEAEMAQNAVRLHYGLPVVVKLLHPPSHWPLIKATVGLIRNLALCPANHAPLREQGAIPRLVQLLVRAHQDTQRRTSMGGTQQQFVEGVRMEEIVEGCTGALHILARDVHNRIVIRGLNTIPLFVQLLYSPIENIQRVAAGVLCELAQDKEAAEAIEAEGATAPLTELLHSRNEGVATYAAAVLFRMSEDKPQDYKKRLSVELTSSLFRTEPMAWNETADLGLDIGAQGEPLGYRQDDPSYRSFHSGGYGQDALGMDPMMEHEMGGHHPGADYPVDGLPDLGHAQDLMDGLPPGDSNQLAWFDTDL
Test [4] concerns the target endogenous beta-catenin in cells (DLD1, HAP1 WT) (human). The test is described as follows: cell-based or functional assay.
For test [5], the target named is beta-catenin fused to HaloTag (NanoBRET acceptor construct), expressed in HEK293 cells (UniProt P35222). The test is described as follows: NanoBRET in HEK293 cells, beta-catenin-HaloTag against TCF4-NanoLuc. A general note: Bioluminescence resonance energy transfer reports proximity on the nanometre scale.
Chain of beta-catenin fused to HaloTag (NanoBRET acceptor construct), expressed in HEK293 cells (P35222 whole entry, the tested form may be a part): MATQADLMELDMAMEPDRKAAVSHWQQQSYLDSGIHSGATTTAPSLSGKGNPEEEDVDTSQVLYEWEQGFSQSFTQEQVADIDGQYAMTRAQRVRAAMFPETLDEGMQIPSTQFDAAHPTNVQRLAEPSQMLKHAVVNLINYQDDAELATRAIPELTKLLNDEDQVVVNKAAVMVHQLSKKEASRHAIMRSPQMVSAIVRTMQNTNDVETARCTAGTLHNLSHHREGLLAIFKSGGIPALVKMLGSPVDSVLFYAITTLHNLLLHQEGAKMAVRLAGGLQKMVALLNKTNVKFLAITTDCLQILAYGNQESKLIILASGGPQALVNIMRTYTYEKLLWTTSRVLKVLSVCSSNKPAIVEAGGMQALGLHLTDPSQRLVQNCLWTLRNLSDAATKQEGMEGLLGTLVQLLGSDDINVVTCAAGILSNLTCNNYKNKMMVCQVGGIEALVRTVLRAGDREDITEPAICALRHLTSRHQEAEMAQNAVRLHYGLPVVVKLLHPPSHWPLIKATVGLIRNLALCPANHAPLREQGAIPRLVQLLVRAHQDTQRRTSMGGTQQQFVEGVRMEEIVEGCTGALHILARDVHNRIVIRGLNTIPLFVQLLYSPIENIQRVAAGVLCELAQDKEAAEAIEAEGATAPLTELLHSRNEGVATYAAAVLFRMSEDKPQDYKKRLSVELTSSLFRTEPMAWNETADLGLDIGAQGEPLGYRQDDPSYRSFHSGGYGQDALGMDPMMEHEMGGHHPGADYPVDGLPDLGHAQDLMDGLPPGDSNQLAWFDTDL
In test [6] the target is beta-catenin fused to HaloTag (Bcat-Halo NanoBRET construct), expressed in HEK293 cells (UniProt P35222). The test is described as follows: NanoBRET Abs IC50 in HEK293 cells, beta-catenin-HaloTag against TCF4-NanoLuc.
Chain of beta-catenin fused to HaloTag (Bcat-Halo NanoBRET construct), expressed in HEK293 cells (P35222 whole entry, the tested form may be a part): as above
For test [7], the target named is full-length B-Catenin (Uniprot ID P35222) (human). The test is described as follows: competition fluorescence polarization, displacement of 5FAM-TCF4.

As a reminder, the IC50 is the concentration needed to halve the response being measured. A lower IC50 goes with greater potency.

Chain of full-length B-Catenin (Uniprot ID P35222) (human) (P35222 whole entry): as the sequence (P35222 whole entry, the tested form may be a part) above
Chain of endogenous beta-catenin in cells (DLD1, HAP1 WT) (human) (P35222 2-781): as the sequence (P35222 2-781 limits assumed) above

In test [1], “4PyPrpc-PL3-Asp-Npg-B5-Asp-3COOHF-Aib-Ala-Phe-Lys*3-PyrS2-3Thi-BztA-GlnR*3-Ala-NH2 (I-1070) (peptide)” came in with an IC50 of less than 0.05 µM.
In test [2], “I-377: Ac-PL3-Asp-Npg-B5-Asp-3COOHF-Aib-Ala-Phe-[pXyl]Cys-PyrS2-2F3MeF-BztA-Cys-Ala-NH2 (peptide)” came in with an IC50 of 0.093 µM.
In the case of “C-1: Ac-PL3-Asp-Npg-B5-Asp-3COOHF-Ala-Ala-Phe-Leu-PyrS2-2F3MeF-BztA-Gln-NH2 (peptide)”, the beta-catenin TCF4 DLD1 cell reporter assay IC50 in test [3] was 9.8 µM.
As for “1PydoneAc-PL3-Asp-Npg-B5-Asp-3COOHF-Aib-Ala-Phe-Lys*3-PyrS2-3Thi-BztA-GlnR*3-Ala-NH2 (peptide)”, in test [1], the IC50 was less than 0.05 µM.
In test [4], Peptide A returned an AXIN2 expression in DLD1 cells, IC50 of 9.3 µM and an SP5 expression in DLD1 cells, IC50 of 9 µM. Also, in test [5], the IC50 was 3 µM.
In turn, “Ac-PL3-Asp-Npg-B5-Asp-Gln-Aib-Ala-Phe-Lys*3-PyrS2-2F3MeF-BztA-GlnR*3-Ala-NH2 (peptide)” gave an IC50 in test [6] of more than 3 µM.
As to “Ac-PL3-Asp-Npg-B5-Asp-Glu-Aib-Ala-Phe-Lys*3-PyrS2-2F3MeF-BztA-GlnR*3-Ala-NH2 (peptide)”, the IC50 in test [6] was more than 3 µM.
On the same count and under the same terms, with “Ac-PL3-Asp-Npg-B5-Asp-aThr-Aib-Ala-Phe-Lys*3-PyrS2-2F3MeF-BztA-GlnR*3-Ala-NH2 (peptide)” the figure was more than 3 µM; with “Ac-PL3-Asp-Npg-B5-Asp-4F3Me3COOHF-Aib-Ala-Phe-Lys*3-PyrS2-2F3MeF-BztA-GlnR*3-Ala-NH2 (peptide)”, less than 3 µM; with “Ac-PL3-Asp-Npg-B5-Asp-3F2COOHF-Aib-Ala-Phe-Lys*3-PyrS2-2F3MeF-BztA-GlnR*3-Ala-NH2 (peptide)”, more than 3 µM.
In turn, “I-567: Ac-PL3-Asp-Npg-B5-Asp-3COOHF-Aib-Ala-Phe-[3_3-biph]Cys-PyrS2-3Thi-BztA-Cys-Ala-NH2 (peptide)” yielded a beta-catenin TCF4 DLD1 cell reporter assay IC50 in test [3] of more than 20 µM. The substance also had an IC50 in test [2] of 0.12 µM.
“Ac-PL3-Asp-Npg-B5-Asp-Asp-Aib-Ala-Phe-Lys*3-PyrS2-2F3MeF-BztA-GlnR*3-Ala-NH2 (peptide)” gave an IC50 in test [6] of more than 3 µM.
As to “Ac-PL3-Asp-Npg-B5-Asp-Asn-Aib-Ala-Phe-Lys*3-PyrS2-2F3MeF-BztA-GlnR*3-Ala-NH2 (peptide)”, the IC50 in test [6] was more than 3 µM.
In test [6], “Ac-PL3-Asp-Npg-B5-Asp-Ser-Aib-Ala-Phe-Lys*3-PyrS2-2F3MeF-BztA-GlnR*3-Ala-NH2 (peptide)” had an IC50 of more than 3 µM.
As for “123TriAc-PL3-Asp-Npg-B5-Asp-3COOHF-Aib-Ala-Phe-Lys*3-PyrS2-3Thi-BztA-GlnR*3-Ala-NH2 (peptide)”, the IC50 in test [1] was less than 0.05 µM.
Consider “Ac-PL3-Asp-Npg-B5-Asp-Ala-Aib-Ala-Phe-Lys*3-PyrS2-2F3MeF-BztA-GlnR*3-Ala-NH2 (peptide)”, for which, in test [6], the IC50 is more than 3 µM.
Substance “Ac-PL3-Asp-Npg-B5-Asp-4F3Me2COOHF-Aib-Ala-Phe-Lys*3-PyrS2-2F3MeF-BztA-GlnR*3-Ala-NH2 (peptide)” registered an IC50 in test [6] of more than 3 µM.
Substance “Ac-PL3-Asp-Npg-B5-Asp-2COOHF-Aib-Ala-Phe-Lys*3-PyrS2-2F3MeF-BztA-GlnR*3-Ala-NH2 (peptide)” showed an IC50 in test [6] of less than 3 µM.
In the case of “1Pyrazole Ac-PL3-Asp-Npg-B5-Asp-3COOHF-Aib-Ala-Phe-Lys*3-PyrS2-3Thi-BztA-GlnR*3-Ala-NH2 (peptide)”, in test [1], the IC50 is less than 0.05 µM.
In test [6], “Ac-PL3-Asp-Npg-B5-Asp-5F3Me2COOHF-Aib-Ala-Phe-Lys*3-PyrS2-2F3MeF-BztA-GlnR*3-Ala-NH2 (peptide)” gave an IC50 of more than 3 µM.
In test [1], “3PyPrpc-PL3-Asp-Npg-B5-Asp-3COOHF-Aib-Ala-Phe-Lys*3-PyrS2-3Thi-BztA-GlnR*3-Ala-NH2 (peptide)” returned an IC50 of less than 0.05 µM.
For “I-376: Ac-PL3-Asp-Npg-B5-Asp-3COOHF-Aib-Ala-Phe-[oXyl]Cys-PyrS2-2F3MeF-BztA-Cys-Ala-NH2 (peptide)”, the IC50 in test [2] was 0.22 µM.
For “5PymAc-PL3-Asp-Npg-B5-Asp-3COOHF-Aib-Ala-Phe-Lys*3-PyrS2-3Thi-BztA-GlnR*3-Ala-NH2 (peptide)”, the half-inhibitory concentration (IC50) in test [1] was less than 0.05 µM.
Take “I-566: Ac-PL3-Asp-Npg-B5-Asp-3COOHF-Aib-Ala-Phe-[2_6-naph]Cys-PyrS2-3Thi-BztA-Cys-Ala-NH2 (peptide)”: the beta-catenin TCF4 DLD1 cell reporter assay IC50 in test [3] was more than 20 µM. This substance had an IC50 in test [2] of 0.058 µM.
The substance “4PyPrpc-PL3-Asp-Npg-B5-Asp-3COOHF-Aib-Ala-Phe-Lys*3-PyrS2-3Thi-BztA-GlnR*3-Ala-NH2 (I-1071) (peptide)” returned a concentration for half-maximal inhibition (IC50) in test [1] of less than 0.05 µM.
In test [1], “3Py Ac-PL3-Asp-Npg-B5-Asp-3COOHF-Aib-Ala-Phe-Lys*3-PyrS2-3Thi-BztA-GlnR*3-Ala-NH2 (peptide)” gave an IC50 of less than 0.05 µM.
Consider “Ac-PL3-Asp-Npg-B5-Asp-5F3Me3COOHF-Aib-Ala-Phe-Lys*3-PyrS2-2F3MeF-BztA-GlnR*3-Ala-NH2 (peptide)”, for which the IC50 in test [7] was less than 0.05 µM.
Regarding “Ac-PL3-Asp-Npg-B5-Asp-dGlu-Aib-Ala-Phe-Lys*3-PyrS2-2F3MeF-BztA-GlnR*3-Ala-NH2 (peptide)”, the IC50 in test [7] is less than 0.05 µM.

Source of the values: US20240360179A1.
